For one substance, IC50 in TZM-bl cells and IC50, neutralizing activity (MTT assay) results are on record in patent US20110044995A1.

What all share (assay): cell-based or functional assay
Experiment [1] has as its target envelope of standard panel pseudotyped virus SVPB17 (HIV-1 subtype B).
The target of experiment [2] is envelope of HIV-1 strain BaL (HIV-1 strain BaL).
In experiment [3] the target is envelope of HIV-1 strain JR-FL (JRFLwt), on virus (HIV-1 strain JR-FL).
Experiment [4] deals with envelope of standard panel pseudotyped virus SVPB15 (HIV-1 subtype B).
In experiment [5] the target is envelope of standard panel pseudotyped virus SVPB11 (HIV-1 subtype B).
Experiment [6] deals with envelope of HIV-1 strain 89.6 (HIV-1 strain 89.6) (UniProt Q73372).
Experiment [7] addresses envelope of standard panel pseudotyped virus SVPB13 (HIV-1 subtype B).
Experiment [8] addresses envelope of HIV-1 strain JRFLGPER
The target of experiment [9] is envelope of HIV-1 strain YU2 (HIV-1 strain YU2) (UniProt P35961).
Experiment [10] has as its target envelope of HIV-2 strain ROD (HIV-2 strain ROD) (UniProt P04577).
Experiment [11] addresses envelope of standard panel pseudotyped virus SVPB5 (HIV-1 subtype B).
The target in experiment [12] is envelope of HIV-1 strain SF162 (HIV-1 strain SF162) (UniProt P19550).
Experiment [13] addresses envelope of standard panel pseudotyped virus SVPB14 (HIV-1 subtype B).
The target in experiment [14] is envelope of standard panel pseudotyped virus SVPB18 (HIV-1 subtype B).
The target of experiment [15] is envelope of standard panel pseudotyped virus SVPB6 (HIV-1 subtype B).
Experiment [16] has as its target envelope of standard panel pseudotyped virus SVPB16 (HIV-1 subtype B).
Experiment [17] addresses envelope of HIV-1 strain IIIB (HIV-1 strain IIIB).
For experiment [18], the target named is envelope of HIV-2 strain EHO (HIV-2 strain EHO).
Experiment [19] has as its target envelope of standard panel pseudotyped virus SVPB12 (HIV-1 subtype B).
In experiment [20] the target is envelope of standard panel pseudotyped virus SVPB8 (HIV-1 subtype B).

Some results are limits rather than exact numbers.

Chain of envelope of HIV-2 strain ROD (HIV-2 strain ROD) (P04577 20-858): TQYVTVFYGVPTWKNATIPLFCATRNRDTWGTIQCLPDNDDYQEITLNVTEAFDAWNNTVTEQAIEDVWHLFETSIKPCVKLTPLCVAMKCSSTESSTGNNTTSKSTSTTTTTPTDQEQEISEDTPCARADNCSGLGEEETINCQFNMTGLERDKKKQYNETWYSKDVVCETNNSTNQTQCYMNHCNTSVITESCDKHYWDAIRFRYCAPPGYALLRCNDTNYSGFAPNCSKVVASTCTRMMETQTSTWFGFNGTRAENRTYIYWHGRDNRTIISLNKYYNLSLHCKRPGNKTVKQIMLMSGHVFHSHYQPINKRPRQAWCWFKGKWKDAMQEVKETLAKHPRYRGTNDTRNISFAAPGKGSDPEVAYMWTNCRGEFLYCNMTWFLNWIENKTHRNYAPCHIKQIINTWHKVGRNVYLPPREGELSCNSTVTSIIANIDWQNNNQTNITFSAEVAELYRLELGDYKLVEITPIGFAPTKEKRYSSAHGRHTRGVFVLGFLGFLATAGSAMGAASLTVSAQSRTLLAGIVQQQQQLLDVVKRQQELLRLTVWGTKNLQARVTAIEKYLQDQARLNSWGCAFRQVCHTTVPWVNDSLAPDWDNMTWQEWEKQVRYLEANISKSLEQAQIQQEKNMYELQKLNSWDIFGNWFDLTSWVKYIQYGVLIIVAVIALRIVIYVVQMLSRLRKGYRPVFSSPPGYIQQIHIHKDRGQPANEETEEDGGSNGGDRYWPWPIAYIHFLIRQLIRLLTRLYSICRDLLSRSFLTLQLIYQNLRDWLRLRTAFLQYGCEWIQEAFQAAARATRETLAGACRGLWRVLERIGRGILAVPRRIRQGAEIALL
Chain of envelope of HIV-1 strain YU2 (HIV-1 strain YU2) (P35961 32-843): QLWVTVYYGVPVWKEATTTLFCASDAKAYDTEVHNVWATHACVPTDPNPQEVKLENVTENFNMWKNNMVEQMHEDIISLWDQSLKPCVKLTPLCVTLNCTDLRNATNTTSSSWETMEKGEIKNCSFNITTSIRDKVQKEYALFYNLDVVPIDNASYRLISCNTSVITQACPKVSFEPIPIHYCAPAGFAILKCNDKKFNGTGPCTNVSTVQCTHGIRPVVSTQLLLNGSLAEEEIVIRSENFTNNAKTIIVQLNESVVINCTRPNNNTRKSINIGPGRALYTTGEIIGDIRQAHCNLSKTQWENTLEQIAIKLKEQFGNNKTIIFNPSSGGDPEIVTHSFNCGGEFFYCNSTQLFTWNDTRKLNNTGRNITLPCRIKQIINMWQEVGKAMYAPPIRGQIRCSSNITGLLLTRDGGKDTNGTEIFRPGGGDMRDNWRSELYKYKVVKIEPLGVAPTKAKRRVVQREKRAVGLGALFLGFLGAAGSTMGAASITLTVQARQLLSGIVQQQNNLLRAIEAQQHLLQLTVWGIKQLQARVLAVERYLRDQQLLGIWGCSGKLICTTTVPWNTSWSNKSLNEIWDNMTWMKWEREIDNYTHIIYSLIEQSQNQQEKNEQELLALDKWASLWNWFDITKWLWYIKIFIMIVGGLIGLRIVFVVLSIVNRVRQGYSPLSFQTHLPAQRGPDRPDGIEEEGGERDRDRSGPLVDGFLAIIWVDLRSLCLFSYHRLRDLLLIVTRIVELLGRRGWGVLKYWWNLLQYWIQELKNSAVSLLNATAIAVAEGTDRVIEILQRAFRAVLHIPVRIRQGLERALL

As to KD-247 (antibody), the IC50 in TZM-bl cells was 17 µg/mL in experiment [1]; over 50 µg/mL in experiment [4]; over 50 µg/mL in [5]; over 50 µg/mL in [7]; 1.8 µg/mL in [11]; over 50 µg/mL in experiment [13]. In addition, the IC50 in TZM-bl cells in experiment [14] was 28 µg/mL; in experiment [15], over 50 µg/mL; in experiment [16] it was over 50 µg/mL; in experiment [19] it was over 50 µg/mL; in experiment [20] it was over 50 µg/mL. In addition, the IC50, neutralizing activity (MTT assay) is 3.8 µg/mL in experiment [2]; 12 µg/mL in [3]; 4.2 µg/mL in experiment [6]; over 50 µg/mL in experiment [8]; over 50 µg/mL in [9]; over 50 µg/mL in [10]. Moreover, the figures for the IC50, neutralizing activity (MTT assay) in experiment [12], in experiment [17] and in experiment [18] were 0.21 µg/mL, over 50 µg/mL and over 50 µg/mL, respectively.
